Test results as given in US7138497 (CHIRON, dated 2006).

B1: 741F8/26-10 (sFv')2 heterodimer (bispecific antibody)
scFv 1: MAEIQLVQSGPELKKPGETVKISCKASGYTFTNYGMNWVKQAPGKGLKWMGWINTNTGEPTYAEEFKGRFAFSLETSASTAYLQINNLKNEDTATYFCGRQFITYGGFANWGQGTLVTVSASSSSGSSSSGSSSSDIVMTQSPKFMSTSVGDRVSISCKASQDVSTAVAWYQQKPGQSPKLLIYWTSTRHTGVPDRFTGSGSGTDYTLTISSVQAEDLALHYCQQHYRVPYTFGGGTKLEIKRADGGGGC
scFv 2: MEVQLQQSGPELVKPGASVRMSCKSSGYIFTDFYMNWVRQSHGKSLDYIGYISPYSGVTGYNQKFKGKATLTVDKSSSTAYMELRSLTSEDSAVYYCAGSSGNKWAMDYWGHGASVTVSSSGSSSSGSSSSGSDVVMTQTPLSLPVSLGDQASISCRSSQSLVHSNGNTYLNWYLQKAGQSPKLLIYKVSNRFSGVPDRFSGSGSGTDFTLKISRVEAEDLGIYFCSQTTHVPPTFGGGTKLEIKRSGGGGC
modifications: C-terminal cysteine of the (Gly)4-Cys tail disulfide linked to the other chain
notes: Made by reacting 26-10 sFv'-TNB with reduced 741F8 sFv'; also called 741F8/26-10 heterodimer
B2: 520C9 sFv single-chain binding protein (scFv)
scFv: EIQLVQSGPELKKPGETVKISCKASGYTFANYGMNWMKQAPGKGLKWMGWINTYTGQSTYADDFKERFAFSLETSATTAHLQINNLRNEDSATYFCARRFGFAYWGQGTLVSVSASISSSSGSSSSGSSSSGSDIQMTQSPSSLSASLGERVSLTCRASQDIGNSLTWLQQEPDGTIKRLIYATSSLDSGVPKRFSGSRSGSDYSLTISSLESEDFVVYYCLQYAIFPYTFGGGTNLEIKRAD
notes: also called biosynthetic 520C9 sFv
B3: Fab fragment of the 520C9 monoclonal antibody (Fab, V domains shown)
VH: EIQLVQSGPELKKPGETVKISCKASGYTFANYGMNWMKQAPGKGLKWMGWINTYTGQSTYADDFKERFAFSLETSATTAHLQINNLRNEDSATYFCARRFGFAYWGQGTLVSVSA
VL: DIQMTQSPSSLSASLGERVSLTCRASQDIGNSLTWLQQEPDGTIKRLIYATSSLDSGVPKRFSGSRSGSDYSLTISSLESEDFVVYYCLQYAIFPYTFGGGTNLEIK
notes: Fab of the parental murine monoclonal antibody 520C9; The limits of VH (1-115) are derived from the printed linker position; also called 520C9 Fab; parental 520C9 Fab fragment

Assays:
[1] = molecular target: T1, c-erbB-2 extracellular domain (ECD) with His6 peptide, attached to agarose beads (UniProt P04626 23-652, limits assumed); experiment: affinity chromatography on c-erbB-2 ECD-agarose, eluted with 5M LiCl
T1 construct: extracellular domain; Expressed in CHO cells, purified by IMAC, coupled to agarose beads
Experimental: The (sFv')_2 heterodimers can be separated by a two step affinity chromatography procedure taking advantage of the bivalent nature of the dimer. For instance, during the purification of the 741F8/26-10 heterodimer the mixture initially was loaded onto an ouabain-Sepharose column, washed with a PBS, 1 M NaCl buffer, to remove any non-specifically adsorbed material, and rewashed with PBS to reduce the salt concentration. The reactive 26-10 sFv' species bound to the resin were eluted with 20 mM ouabain in PBS and the eluate dialyzed against PBS to remove the cardiac glycoside. The 741F8/26-10 heterodimers were then repurified on a c-erbB-2-agarose affinity column taking advantage of the ECD binding site in the heterodimer. […] Prior to use, the buffer was exchanged with PBS by dialysis.

[2] = molecular target: T1, c-erbB-2 extracellular domain (ECD) …; experiment: affinity chromatography on c-erbB-2 ECD-agarose
Excerpt: The refolded 26-10 sFv' polypeptide chains were purified by ouabain-Sepharose affinity chromatography, as described for the 26-10 sFv constructs (Huston, et. al., 1988, *Proc. Natl Acad. Sci. USA* 85; 5879–5883 and Tai, et al., 1990, *Biochem.* 29, 8024–[…], both of which are hereby incorporated by reference). The refolded 520C9 sFv polypeptide chain was similarly purified using a c-erbB-2-agarose affinity column. […] The buffer was then exchanged by dialysis. The c-erbB-2 affinity column preferably was prepared by linking the extracellular domain of c-erbB-2 onto agarose beads.

[3] = molecular target: T2, c-erbB-2 (extract of SK-Br-3 breast cancer cells coated on the plate) (UniProt P04626 23-1255); experiment: competition ELISA, SK-Br-3 extract on plate, 520C9-HRP probe as competitor
T2 construct: Crude detergent extract of the cells, not purified protein; also called c-erbB-2 antigen
Experimental: In order to prepare c-erbB-2, SK-Br-3 breast cancer cells (Ring et al., 1989, Cancer Res. 49: 3070–3080), were harvested and resuspended in 10 mM NaCl, 0.5% Nonidet-P40, pH 8. Insoluble debris was removed by centrifugation and the extract filtered through 0.45 Millex HA and 0.2 Millex GV filters. 40µl of the extract was added to each well of a 96 well plate and incubated overnight at 37° C. The plates then were washed with PBS and non-specific binding sites blocked following the addition of PBS containing 1% skim milk by incubation for one hour at room temperature. The sFv and 520C9 Fab samples, diluted in PBS, were added to the wells and incubated for 30 mins at room temperature. A control containing only dilution buffer was also included.
In order to quantitate the reaction, 20µl of a 520C9-horseradish peroxidase (HRP) probe (Zymed Labs., South San Francisco, Calif.), diluted to 14 µl/ml in PBS containing 1% skim milk, was added to each well and incubated for one hour at room temperature. The plate was then washed four times with PBS, the peroxidase substrate added and incubated for 30 minutes at room temperature. The reaction was quenched with H_2SO_4 and the […] values measured.

| Binder | binding result [1] | binding result [2] | binding result [3] |
| --- | --- | --- | --- |
| B1 | binds |  |  |
| B2 |  | binds | binds |
| B3 |  |  | binds |
